Consider two substances from paper PMC8943062.

In test [1] the target is open-gate E71V KcsA channel (chymotrypsin-truncated, TM1 and TM2 cross-linked by C28-C118 disulfides) (UniProt P0A334). The test can be described thus: crystal structure; KcsA-Fab complex (formed from purified channel in DM and Fab, excess Fab removed by SEC) concentrated to 15 mg/ml, crystallised in 50 mM magnesium acetate, 50 mM sodium acetate pH 5.5, 25% PEG 400 at 20 °C; one monomer in the asymmetric unit.

In test [2] the target is closed-gate E71V KcsA channel (chymotrypsin-truncated) (UniProt P0A334). Described as above.

“open-gate E71V KcsA channel (chymotrypsin-truncated, TM1 and TM2 cross-linked by C28-C118 disulfides) (from UniProt P0A334 1-160) (natural protein)” registered a stoichiometry N in test [1] of 4. Substance “closed-gate E71V KcsA channel (chymotrypsin-truncated) (from UniProt P0A334 1-160) (natural protein)” registered a stoichiometry N in test [2] of 4.
